From paper PMC2199005 come the findings set out here.

The term stoichiometry N denotes a count of units in the complex or per binding partner.

Experiment [1] addresses recombinant streptococcal pyrogenic exotoxin C (SPE-C) (Streptococcus pyogenes). In words: SEC. A general note: Size exclusion chromatography separates by hydrodynamic size, large species first.
Experiment [2] has the same target. The experiment in a line: nondenaturing SDS-PAGE.

On to “recombinant streptococcal pyrogenic exotoxin C (SPE-C) (natural protein)”, for which, in experiment [1], the percent dissociated to the monomer form was found to be 50% and the stoichiometry N was found to be 2. For the same substance, the percent of SPE-C in dimer form in experiment [2] is above 60%.
